Patent US20140242084A1 (published 2014)

T1: VE-cadherin of primary human microvascular endothelial cells (HMVECs) (human, UniProt P33151 48-784)
T1 construct: whole, on cells; Endogenous protein, detected by in situ PLA and by co-immunoprecipitation
T1 sequence (looked up): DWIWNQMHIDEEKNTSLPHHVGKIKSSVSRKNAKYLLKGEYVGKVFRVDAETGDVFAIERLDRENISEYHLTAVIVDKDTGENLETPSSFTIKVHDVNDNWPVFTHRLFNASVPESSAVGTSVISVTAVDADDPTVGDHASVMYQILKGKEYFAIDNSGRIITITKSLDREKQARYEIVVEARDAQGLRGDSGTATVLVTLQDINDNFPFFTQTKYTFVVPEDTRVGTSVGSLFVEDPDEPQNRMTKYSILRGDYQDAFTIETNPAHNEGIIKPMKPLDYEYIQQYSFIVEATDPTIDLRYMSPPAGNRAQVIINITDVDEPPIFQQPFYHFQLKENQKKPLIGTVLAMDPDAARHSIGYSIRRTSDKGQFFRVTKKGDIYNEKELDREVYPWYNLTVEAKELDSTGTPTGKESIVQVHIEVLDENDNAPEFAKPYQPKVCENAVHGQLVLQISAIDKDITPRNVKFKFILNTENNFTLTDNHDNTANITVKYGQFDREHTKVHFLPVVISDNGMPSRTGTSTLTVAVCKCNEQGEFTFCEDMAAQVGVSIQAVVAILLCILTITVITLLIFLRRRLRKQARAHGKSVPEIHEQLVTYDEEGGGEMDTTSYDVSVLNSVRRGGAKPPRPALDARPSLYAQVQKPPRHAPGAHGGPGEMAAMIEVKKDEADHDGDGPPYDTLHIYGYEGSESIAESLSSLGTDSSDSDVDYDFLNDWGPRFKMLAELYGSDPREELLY

T2: junction protein JAM-C (human, UniProt Q9BX67 32-310)
T2 construct: whole, on cells
T2 sequence (looked up): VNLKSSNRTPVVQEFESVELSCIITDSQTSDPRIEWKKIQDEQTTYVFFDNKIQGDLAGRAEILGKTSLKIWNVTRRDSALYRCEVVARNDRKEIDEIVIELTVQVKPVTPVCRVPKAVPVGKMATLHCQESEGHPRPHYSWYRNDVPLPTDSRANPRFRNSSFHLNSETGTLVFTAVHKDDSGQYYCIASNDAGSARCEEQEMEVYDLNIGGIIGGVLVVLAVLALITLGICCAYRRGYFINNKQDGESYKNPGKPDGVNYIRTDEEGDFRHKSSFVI

T3: occludin (UniProt Q16625 1-522, limits assumed)
T3 sequence (looked up): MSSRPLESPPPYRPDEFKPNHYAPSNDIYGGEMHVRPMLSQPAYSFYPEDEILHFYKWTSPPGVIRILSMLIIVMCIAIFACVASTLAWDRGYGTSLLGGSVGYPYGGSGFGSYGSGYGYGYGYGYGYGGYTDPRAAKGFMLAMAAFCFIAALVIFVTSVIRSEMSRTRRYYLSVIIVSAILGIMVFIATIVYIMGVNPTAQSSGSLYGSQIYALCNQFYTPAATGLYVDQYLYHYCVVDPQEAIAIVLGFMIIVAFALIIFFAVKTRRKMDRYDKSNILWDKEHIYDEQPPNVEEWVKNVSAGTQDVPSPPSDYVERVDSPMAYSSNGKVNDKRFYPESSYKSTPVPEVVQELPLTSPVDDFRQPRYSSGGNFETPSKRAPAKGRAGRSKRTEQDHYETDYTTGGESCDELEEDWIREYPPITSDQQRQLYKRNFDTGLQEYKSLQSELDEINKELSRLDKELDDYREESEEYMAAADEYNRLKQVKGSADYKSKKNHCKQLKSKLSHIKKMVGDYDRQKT

T4: VE-cadherin (SPR analyte) (UniProt P33151 48-599, limits assumed)
T4 sequence (looked up): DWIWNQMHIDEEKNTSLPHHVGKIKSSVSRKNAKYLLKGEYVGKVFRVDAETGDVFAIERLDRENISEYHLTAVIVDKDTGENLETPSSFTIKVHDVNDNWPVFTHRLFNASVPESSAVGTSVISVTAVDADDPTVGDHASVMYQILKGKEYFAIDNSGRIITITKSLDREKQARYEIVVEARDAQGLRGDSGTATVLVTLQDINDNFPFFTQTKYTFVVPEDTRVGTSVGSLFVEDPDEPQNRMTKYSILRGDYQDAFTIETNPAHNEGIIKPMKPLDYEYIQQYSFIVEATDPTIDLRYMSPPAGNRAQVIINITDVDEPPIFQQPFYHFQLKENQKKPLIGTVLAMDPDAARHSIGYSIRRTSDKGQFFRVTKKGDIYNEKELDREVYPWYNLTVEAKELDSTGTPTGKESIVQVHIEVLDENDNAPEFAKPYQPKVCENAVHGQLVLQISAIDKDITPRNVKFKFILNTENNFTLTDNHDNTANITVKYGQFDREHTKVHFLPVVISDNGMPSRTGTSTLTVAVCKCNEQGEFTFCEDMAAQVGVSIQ

B1: junctional adhesion molecule A (JAM-A) (other, UniProt Q9Y624 28-238, looked up)
chain: SVTVHSSEPEVRIPENNPVKLSCAYSGFSSPRVEWKFDQGDTTRLVCYNNKITASYEDRVTFLPTGITFKSVTREDTGTYTCMVSEEGGNSYGEVKVKLIVLVPPSKPTVNIPSSATIGNRAVLTCSEQDGSPPSEYTWFKDGIVMPTNPKSTRAFSNSSYVLNPTTGELVFDPLSASDTGEYSCEARNGYGTPMTSNAVRMEAVERNVGV
B2: VE-cadherin EC3 (other, UniProt P33151 259-372, looked up)
chain: TQTKYTFVVPEDTRVGTSVGSLFVEDPDEPQNRMTKYSILRGDYQDAFTIETNPAHNEGIIKPMKPLDYEYIQQYSFIVEATDPTIDLRYMSPPAGNRAQVIINITDVDEPPIF
notes: domain: EC3
B3: claudin-5 of primary human microvascular endothelial cells (HMVECs) (other, UniProt O00501 1-218, looked up)
chain: MGSAALEILGLVLCLVGWGGLILACGLPMWQVTAFLDHNIVTAQTTWKGLWMSCVVQSTGHMQCKVYDSVLALSTEVQAARALTVSAVLLAFVALFVTLAGAQCTTCVAPGPAKARVALTGGVLYLFCGLLALVPLCWFANIVVREFYDPSVPVSQKYELGAALYIGWAATALLMVGGCLLCCGAWVCTGRPDLSFPVKYSAPRRPTATGDYDKKNYV
notes: whole, on cells; Endogenous protein, detected by in situ PLA and by co-immunoprecipitation
B4: recombinant human cANGPTL4 (C-terminal region of angiopoietin-like 4) (ligand, UniProt Q9BY76 186-406, looked up)
chain: RDCQELFQVGERQSGLFEIQPQGSPPFLVNCKMTSDGGWTVIQRRHDGSVDFNRPWEAYKAGFGDPHGEFWLGLEKVHSITGDRNSRLAVQLRDWDGNAELLQFSVHLGGEDTAYSLQLTAPVAGQLGATTVPPSGLSVPFSTWDQDHDLRRDKNCAKSLSGGWWFGTCSHSNLNGQYFRSIPQQRQKLKKGIFWKTWRGRYYPLQATTMLIQPMAAEAAS
notes: domain: c terminal region; the tag is not specified; also called rh-cANGPTL4; rhcANGPTL4

Columns and labels:
[1] = target: B4; assay: SPR, immobilised cANGPTL4
Procedure: (§1) SPR was carried out as previously described17,18 using a BIAcore 2000 system (BIAcore, Uppsala, Sweden). Six concentrations (0.16, 0.32, 0.63, 1.25, 2.50 and 5.0 μM) of recombinant integrin β1, first extracellular domain of VE-cadherin (ECD1), extracellular repeat 1 domain of VE-cadherin (EC1), occludin or JAM-A were used. Integrin was expressed in Drosophila S2 cells17 and various extracellular domains of VE-cadherin and claudin-5 purchased from Abnova. Global fitting of the SPR data was performed as previously described to determine the KD. Preinjection or preincubation with the indicated antibodies or preimmune IgG was performed to determine specific interactions. Each sensorgram was corrected by subtracting a sensorgram obtained from a reference flow cell with no immobilized protein. […] Values are mean±S.D. (n=3)

[2] = target: B4; assay: SPR, immobilised cANGPTL4 (FIG. 2B)
Procedure: as §1

[3] = target: B4; assay: figure legend: kinetic PLA and co-immunoprecipitation in HMVECs
Procedure: Values (means±S.D.) represent mean fold change in the number of interactions compared to the zero time point, as determined from n=3 independent experiments (600 HMVECs) using BlobFinder. […] Protein lysates were collected every 10 minutes (0-180 minutes). Values below each band represent the mean fold change in protein expression level compared with the cognate zero time point (n=3). *, P<0.05; **, P<0.01.

[4] = target: integrin β3 (control of the interaction analysis in paragraph 126) (UniProt P05106 27-718, limits assumed); assay: SPR control (sentence also cites references 16, 17)
integrin β3 (control of the interaction analysis in paragraph 126), sequence (P05106 27-718 limits assumed): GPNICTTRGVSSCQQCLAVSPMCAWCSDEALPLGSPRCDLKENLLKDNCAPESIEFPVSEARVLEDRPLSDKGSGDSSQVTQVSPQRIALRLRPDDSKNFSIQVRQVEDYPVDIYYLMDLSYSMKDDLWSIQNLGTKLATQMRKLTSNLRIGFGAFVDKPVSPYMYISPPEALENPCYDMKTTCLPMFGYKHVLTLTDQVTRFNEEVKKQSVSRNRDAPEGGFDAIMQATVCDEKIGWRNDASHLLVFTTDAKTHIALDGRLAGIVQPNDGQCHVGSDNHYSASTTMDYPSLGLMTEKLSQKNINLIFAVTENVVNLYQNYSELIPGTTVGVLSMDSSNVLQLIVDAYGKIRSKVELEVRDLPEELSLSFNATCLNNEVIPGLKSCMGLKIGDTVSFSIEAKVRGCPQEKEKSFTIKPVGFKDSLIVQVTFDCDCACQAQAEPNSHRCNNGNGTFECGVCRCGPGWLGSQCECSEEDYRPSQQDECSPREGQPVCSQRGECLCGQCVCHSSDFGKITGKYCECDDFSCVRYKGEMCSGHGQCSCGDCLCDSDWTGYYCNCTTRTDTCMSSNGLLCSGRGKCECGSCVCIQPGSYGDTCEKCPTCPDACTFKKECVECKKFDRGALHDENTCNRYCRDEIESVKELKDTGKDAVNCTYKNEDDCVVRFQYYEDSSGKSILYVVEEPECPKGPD

[5] = target: recombinant integrin α5β1 (UniProt P08648); assay: SPR (BIAcore 2000), immobilised cANGPTL4, global fit
claudin-5 (SPR analyte) = claudin-5 (SPR analyte) (UniProt O00501); assay: as above
[6] = target: T1, VE-cadherin of primary human …; assay: kinetic PLA in HMVECs in the presence of anti-integrin antibody, against the zero time point (FIG. 4C)
Procedure: (§2) (A, B and D, E) Immunofluorescence staining for ZO-1 (A, D) and transendothelial electrical resistance (TER) measurement (B, E) in confluent HMVEC monolayer. […] Treatments were for 3 or 6 h. HMVECs were counterstained with DAPI (blue) for nuclei and phalloidin (red) for actin stress fibers. Scale bar: 40 μm. White arrows indicate endothelial junction lesions. Data (means±S.D.) from 3 independent experiments. *, P<0.05; **, P<0.01. […] Values (means±S.D.) represent mean fold change in the number of interactions compared to the zero time point, as determined from n=3 independent experiments (˜600 HMVECs) using BlobFinder.

[7] = target: B3; assay: as above
Procedure: as §2

integrin β3 of HMVECs = target: T5, integrin β3 of HMVECs (human, UniProt P05106 27-788); assay: co-immunoprecipitation with anti-cANGPTL4 from lysates of rh-cANGPTL4-treated HMVECs (FIG. 5B)
T5 construct: whole, on cells
T5 sequence (P05106 27-788): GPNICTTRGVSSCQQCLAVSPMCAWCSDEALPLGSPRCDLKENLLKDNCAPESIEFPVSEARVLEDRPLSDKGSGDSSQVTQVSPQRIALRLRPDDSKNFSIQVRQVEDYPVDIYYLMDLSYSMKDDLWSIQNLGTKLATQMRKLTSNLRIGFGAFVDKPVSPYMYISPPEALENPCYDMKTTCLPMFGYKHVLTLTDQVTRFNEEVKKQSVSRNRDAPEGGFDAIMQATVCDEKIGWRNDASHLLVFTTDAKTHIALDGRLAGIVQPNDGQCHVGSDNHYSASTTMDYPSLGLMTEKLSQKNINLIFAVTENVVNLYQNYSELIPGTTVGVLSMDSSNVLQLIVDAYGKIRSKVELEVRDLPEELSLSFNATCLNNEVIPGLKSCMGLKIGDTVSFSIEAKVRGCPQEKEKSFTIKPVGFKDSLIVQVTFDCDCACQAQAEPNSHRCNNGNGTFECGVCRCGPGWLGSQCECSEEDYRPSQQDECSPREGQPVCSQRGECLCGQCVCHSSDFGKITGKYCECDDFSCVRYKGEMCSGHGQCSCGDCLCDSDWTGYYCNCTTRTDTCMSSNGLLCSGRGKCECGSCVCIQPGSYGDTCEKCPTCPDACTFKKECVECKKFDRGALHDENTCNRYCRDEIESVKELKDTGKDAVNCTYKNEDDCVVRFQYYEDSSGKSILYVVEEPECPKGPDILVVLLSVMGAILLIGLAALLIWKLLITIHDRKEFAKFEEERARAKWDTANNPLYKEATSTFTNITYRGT

Tie1 = target: T6, Tie1 (human, UniProt P35590 22-1138); assay: as above
T6 construct: whole, on cells
T6 sequence (P35590 22-1138): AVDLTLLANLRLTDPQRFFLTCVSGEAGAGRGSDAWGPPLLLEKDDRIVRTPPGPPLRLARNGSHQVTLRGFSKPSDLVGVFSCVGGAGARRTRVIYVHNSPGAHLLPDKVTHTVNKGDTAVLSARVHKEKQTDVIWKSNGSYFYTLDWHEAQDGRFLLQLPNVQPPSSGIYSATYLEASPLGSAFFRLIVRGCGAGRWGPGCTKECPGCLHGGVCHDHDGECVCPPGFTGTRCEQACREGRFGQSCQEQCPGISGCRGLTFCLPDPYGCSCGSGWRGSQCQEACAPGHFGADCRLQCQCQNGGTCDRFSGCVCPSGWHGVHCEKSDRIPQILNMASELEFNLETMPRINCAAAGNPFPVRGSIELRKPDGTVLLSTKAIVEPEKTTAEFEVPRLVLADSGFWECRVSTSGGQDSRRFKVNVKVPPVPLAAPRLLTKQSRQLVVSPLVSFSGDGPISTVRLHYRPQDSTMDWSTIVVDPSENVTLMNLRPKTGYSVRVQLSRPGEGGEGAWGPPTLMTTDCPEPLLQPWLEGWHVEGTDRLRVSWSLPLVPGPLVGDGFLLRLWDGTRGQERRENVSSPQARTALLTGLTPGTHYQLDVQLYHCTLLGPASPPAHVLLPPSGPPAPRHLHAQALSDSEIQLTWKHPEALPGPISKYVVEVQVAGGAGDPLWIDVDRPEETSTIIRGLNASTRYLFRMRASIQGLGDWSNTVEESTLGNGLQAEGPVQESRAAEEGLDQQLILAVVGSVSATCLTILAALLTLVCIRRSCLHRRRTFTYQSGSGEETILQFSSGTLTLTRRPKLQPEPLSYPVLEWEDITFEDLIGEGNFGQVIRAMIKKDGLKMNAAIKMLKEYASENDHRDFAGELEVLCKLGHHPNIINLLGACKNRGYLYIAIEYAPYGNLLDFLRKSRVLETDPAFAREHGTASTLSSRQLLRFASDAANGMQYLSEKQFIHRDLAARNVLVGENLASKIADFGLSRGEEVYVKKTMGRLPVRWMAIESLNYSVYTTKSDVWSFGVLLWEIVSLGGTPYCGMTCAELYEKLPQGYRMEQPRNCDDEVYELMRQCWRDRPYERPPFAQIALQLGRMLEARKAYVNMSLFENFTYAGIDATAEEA

Tie2 = target: T7, Tie2 (human, UniProt Q02763 23-1124); assay: as above
T7 construct: whole, on cells

junction protein JAM-C = target: T2, junction protein JAM-C; assay: as above
occludin = target: T3, occludin; assay: SPR, immobilised cANGPTL4
Procedure: as §1

[8] = target: T4, VE-cadherin (SPR analyte); assay: SPR (BIAcore 2000), immobilised cANGPTL4, global fit
Procedure: as §1

[9] = target: T1, VE-cadherin of primary human …; assay: in situ proximity ligation assay on ECs, 250 cells
[10] = target: T8, integrin α5β1 of primary human microvascular endothelial cells (HMVECs) (human, UniProt P08648 42-1049; P05556 21-798); assay: in situ proximity ligation assay on ECs, 250 cells
T8 construct: whole, on cells; Endogenous protein, detected by in situ PLA and by co-immunoprecipitation from HMVEC lysates
T8 sequence (P08648 42-1049, chain 1 of 2): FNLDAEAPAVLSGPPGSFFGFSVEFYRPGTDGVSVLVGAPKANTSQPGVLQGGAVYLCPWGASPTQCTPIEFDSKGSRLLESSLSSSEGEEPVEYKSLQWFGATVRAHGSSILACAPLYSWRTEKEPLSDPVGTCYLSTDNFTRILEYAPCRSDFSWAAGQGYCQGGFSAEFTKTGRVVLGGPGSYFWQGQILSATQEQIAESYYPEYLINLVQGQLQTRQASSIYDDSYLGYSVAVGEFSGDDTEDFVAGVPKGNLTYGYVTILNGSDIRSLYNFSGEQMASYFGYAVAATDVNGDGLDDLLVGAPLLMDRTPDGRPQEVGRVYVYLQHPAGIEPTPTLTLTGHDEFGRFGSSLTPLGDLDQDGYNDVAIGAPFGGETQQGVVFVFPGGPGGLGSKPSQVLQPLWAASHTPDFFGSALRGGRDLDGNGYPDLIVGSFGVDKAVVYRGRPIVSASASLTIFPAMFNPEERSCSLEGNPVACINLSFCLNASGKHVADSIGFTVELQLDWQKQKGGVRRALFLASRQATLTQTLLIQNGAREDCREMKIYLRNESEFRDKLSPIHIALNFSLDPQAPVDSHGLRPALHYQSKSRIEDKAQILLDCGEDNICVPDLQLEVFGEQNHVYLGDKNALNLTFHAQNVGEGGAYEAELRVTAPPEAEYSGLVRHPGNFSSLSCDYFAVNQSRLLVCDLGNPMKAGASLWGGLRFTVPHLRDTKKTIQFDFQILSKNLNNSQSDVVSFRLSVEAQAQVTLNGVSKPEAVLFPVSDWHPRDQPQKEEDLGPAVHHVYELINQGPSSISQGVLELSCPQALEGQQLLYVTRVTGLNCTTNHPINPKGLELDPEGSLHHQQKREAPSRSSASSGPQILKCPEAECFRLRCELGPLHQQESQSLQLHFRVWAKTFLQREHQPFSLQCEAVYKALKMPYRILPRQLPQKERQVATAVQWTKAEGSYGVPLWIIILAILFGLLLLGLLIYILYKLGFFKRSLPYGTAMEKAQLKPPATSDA
T8 sequence (P05556 21-798, chain 2 of 2): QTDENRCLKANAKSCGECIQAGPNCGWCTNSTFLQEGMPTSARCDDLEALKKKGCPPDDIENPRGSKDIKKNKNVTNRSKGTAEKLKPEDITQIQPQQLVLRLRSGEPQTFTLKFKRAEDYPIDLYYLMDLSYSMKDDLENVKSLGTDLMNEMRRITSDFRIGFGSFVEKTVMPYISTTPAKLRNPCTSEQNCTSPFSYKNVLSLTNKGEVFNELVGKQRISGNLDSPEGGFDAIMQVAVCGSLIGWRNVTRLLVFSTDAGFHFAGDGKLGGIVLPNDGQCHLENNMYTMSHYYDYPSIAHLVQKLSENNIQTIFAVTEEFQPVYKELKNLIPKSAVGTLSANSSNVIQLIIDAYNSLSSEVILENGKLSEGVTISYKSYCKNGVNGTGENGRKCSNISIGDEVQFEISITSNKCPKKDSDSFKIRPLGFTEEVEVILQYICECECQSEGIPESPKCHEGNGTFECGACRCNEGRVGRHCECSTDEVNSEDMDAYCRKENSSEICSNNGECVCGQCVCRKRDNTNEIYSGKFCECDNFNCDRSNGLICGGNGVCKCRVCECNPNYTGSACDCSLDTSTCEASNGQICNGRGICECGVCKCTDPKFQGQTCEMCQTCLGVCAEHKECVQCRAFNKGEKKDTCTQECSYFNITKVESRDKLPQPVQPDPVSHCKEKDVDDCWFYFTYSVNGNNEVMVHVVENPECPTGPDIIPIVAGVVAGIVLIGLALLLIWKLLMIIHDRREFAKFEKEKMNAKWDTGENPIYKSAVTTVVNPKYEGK

[11] = target: B3; assay: in situ proximity ligation assay on ECs, 250 cells

Binder: B1
- binding result [1]: no binding (tested: 0.16-5.0 µM)

Binder: B2
- binding result [2]: no binding

Binder: B3
- binding result [3]: binds

Binder: B4
- binding result [4]: no binding
- Kd [5]: 12.6 nM
- Kd (claudin-5 (SPR analyte)): 58.7 nM
- mean fold change in the interactions [6]: 0.4 fold
- mean fold change in the interactions [7]: 0.4 fold
- binding result (integrin β3 of HMVECs): no binding
- binding result (Tie1): no binding
- binding result (Tie2): no binding
- binding result (junction protein JAM-C): no binding
- binding result (occludin): no binding (tested: 0.16-5.0 µM)
- Kd [8]: 112 nM
- PLA spots/cell [9]: 16.4 PLA spots/cell
- PLA spots/cell [10]: 22.5 PLA spots/cell
- PLA spots/cell [11]: 12.3 PLA spots/cell
